T1: LAG3 Protein, Human, Recombinant (His Tag) (Sino Biological Catalog No. 16498-H08H) (human, UniProt P18627 23-450)
T1 construct: Bought protein; also called hLAG3-His; LAG3-His; not shown: His tag
T1 sequence (looked up): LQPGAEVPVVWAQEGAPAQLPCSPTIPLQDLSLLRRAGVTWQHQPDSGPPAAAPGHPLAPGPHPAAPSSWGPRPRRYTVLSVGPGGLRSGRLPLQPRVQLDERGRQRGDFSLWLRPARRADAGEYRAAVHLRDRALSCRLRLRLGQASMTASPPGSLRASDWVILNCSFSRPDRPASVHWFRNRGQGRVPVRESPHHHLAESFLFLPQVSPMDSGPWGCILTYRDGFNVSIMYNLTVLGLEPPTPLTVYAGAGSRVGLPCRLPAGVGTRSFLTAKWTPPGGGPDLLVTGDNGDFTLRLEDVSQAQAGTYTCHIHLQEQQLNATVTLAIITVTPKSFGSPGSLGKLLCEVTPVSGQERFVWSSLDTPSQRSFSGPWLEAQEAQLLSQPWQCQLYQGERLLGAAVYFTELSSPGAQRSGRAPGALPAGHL

T2: human LAG3 expressed on cells (human, UniProt P18627 23-525)
T2 sequence (looked up): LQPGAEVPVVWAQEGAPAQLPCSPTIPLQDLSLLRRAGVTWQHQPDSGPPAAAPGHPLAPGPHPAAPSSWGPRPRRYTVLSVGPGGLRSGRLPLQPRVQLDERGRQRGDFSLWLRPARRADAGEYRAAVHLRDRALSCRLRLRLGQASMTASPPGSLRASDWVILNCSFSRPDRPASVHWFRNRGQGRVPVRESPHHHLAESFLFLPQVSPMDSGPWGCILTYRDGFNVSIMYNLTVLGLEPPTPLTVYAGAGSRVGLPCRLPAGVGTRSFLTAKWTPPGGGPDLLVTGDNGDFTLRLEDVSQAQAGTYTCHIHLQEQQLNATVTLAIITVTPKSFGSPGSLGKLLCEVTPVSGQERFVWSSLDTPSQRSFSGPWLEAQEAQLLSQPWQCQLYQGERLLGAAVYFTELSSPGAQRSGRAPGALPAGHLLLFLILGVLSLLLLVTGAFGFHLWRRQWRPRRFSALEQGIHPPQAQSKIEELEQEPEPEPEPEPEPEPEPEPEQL


Columns and labels:
[1] = molecular target: T1, LAG3 Protein, Human, Recombinant (His …); experiment: SPR binning on LAG3-His; competitor 17
Experimental: (§1) The chip surface was regenerated after each cycle with 25 mM NaOH followed by HBS-EP wash provided in the kit.

[2] = molecular target: T1, LAG3 Protein, Human, Recombinant (His …); experiment: SPR binning on LAG3-His; competitor 27
Experimental: as §1

[3] = molecular target: T1, LAG3 Protein, Human, Recombinant (His …); experiment: SPR binning on LAG3-His; competitor 1
Experimental: as §1

[4] = molecular target: T1, LAG3 Protein, Human, Recombinant (His …); experiment: SPR binning on LAG3-His; competitor 20
Experimental: as §1

[5] = molecular target: T2, human LAG3 expressed on cells; experiment: cell-based or functional assay
[6] = molecular target: T1, LAG3 Protein, Human, Recombinant (His …); experiment: SPR (Biacore), sdAb captured by anti-human Fc, LAG3-His analyte
Experimental: The binding of the single domain antibodies to recombinant human LAG3 protein (rhLAG3) was examined by Biacore™ assay. […] The coating was carried out according to the manufacturer’s instructions accompanying the kit (Catalog No. BR-1008-39, GE). […] The chip surface was regenerated after each cycle with 25 mM NaOH followed by HBS-EP wash provided in the kit.

[7] = molecular target: T1, LAG3 Protein, Human, Recombinant (His …); experiment: SPR binning on LAG3-His; competitor 21
Experimental: as §1

[8] = molecular target: T1, LAG3 Protein, Human, Recombinant (His …); experiment: SPR binning on LAG3-His; competitor 37
Experimental: as §1

[9] = molecular target: T1, LAG3 Protein, Human, Recombinant (His …); experiment: SPR binning on LAG3-His; competitor 24
Experimental: as §1

[10] = molecular target: T1, LAG3 Protein, Human, Recombinant (His …); experiment: SPR binning on LAG3-His; competitor 73
Experimental: as §1

[11] = molecular target: T1, LAG3 Protein, Human, Recombinant (His …); experiment: SPR binning on LAG3-His; competitor 25
Experimental: as §1

[12] = molecular target: T2, human LAG3 expressed on cells; experiment: cell-based or functional assay; remark: listed apart in the source
[13] = molecular target: T1, LAG3 Protein, Human, Recombinant (His …); experiment: SPR binning on LAG3-His; competitor 18
Experimental: as §1

[14] = molecular target: T1, LAG3 Protein, Human, Recombinant (His …); experiment: SPR binning on LAG3-His; competitor BMS
Experimental: as §1

| RU [1] | RU [2] | RU [3] | RU [4] | IL-2, % of BMS, at 0.005080526 ug/mL [5] | IL-2, % of BMS, at 0.015241579 ug/mL [5] | IL-2, % of BMS, at 0.045724737 ug/mL [5] | IL-2, % of BMS, at 0.137174211 ug/mL [5] | IL-2, % of BMS, at 0.411522634 ug/mL [5] | IL-2, % of BMS, at 1.234567901 ug/mL [5] | IL-2, % of BMS, at 3.703703704 ug/mL [5] | IL-2, % of BMS, at 11.11111111 ug/mL [5] | IL-2, % of BMS, at 33.33333333 ug/mL [5] | IL-2, % of BMS, at 100 ug/mL [5] | koff [6] | kon [6] | RU [7] | RU [8] | RU [9] | RU [10] | Binder | further results |
| --- | --- | --- | --- | --- | --- | --- | --- | --- | --- | --- | --- | --- | --- | --- | --- | --- | --- | --- | --- | --- | --- |
| 41 RU | 50.9 RU | 44.7 RU | 44.6 RU | 3.24% | -0.59% | 8.03% | 2.39% | 9.2% | 25.1% | 30.6% | 34.1% | 39.8% | 53.7% | 0.000108 s⁻¹ | 6.31e+06 M⁻¹ s⁻¹ | 49.3 RU | 44.1 RU | 46.4 RU | 47.6 RU | sdAb No. 25 (VHH, Fc of the tested form not described; also called sdAb 25; sdAb #25; not shown: Fc part implied by anti-human Fc capture and anti-human IgG Fc detection) VHH: QLQLVESGGGLVQAGGSLRLSCAASGSIESFSFMGWYRQAPGKQRELVAGFTGAASLSFSTYTDAVKGRFTISRDNAKNTVYLQMNSLKPEDTAVYFCNVDPWSQSWPGRYWGQGTQVTVSS | Kd [6]: 0.017 nM; RU [11]: 7.2 RU; EC50 for IL-2 rescue, hLAG3 Jurkat T system [12]: 8.12 nM; Efficacy (IL-2 production, BMS = 100%) [12]: 43.4%; RU [13]: 39 RU; RU [14]: 31.7 RU |
| -2 RU | -7 RU | -13.6 RU | -14.6 RU | 5.97% | 9.56% | 9.97% | 18% | 22.3% | 26.5% | 31.4% | 38% | 38% | 42.2% | 0.0012 s⁻¹ | 6.6e+06 M⁻¹ s⁻¹ | -12.5 RU | -13.4 RU | -10.4 RU | -17 RU | sdAb No. 17 (VHH, Fc of the tested form not described; also called sdAb 17; not shown: Fc part implied by anti-human Fc capture and anti-human IgG1 Fc detection) VHH: QLQLVESGGGLVQPGGSLRLSCAASGLTLDGYAIGWFRQAPGKEREGLACISGSDGSTHYLDSVKGRFTISRDNGKNTMALQMNSLQFGDTAIYYCAARRGSCSGSWTYWGQGTQVTVSS | Kd [6]: 0.181 nM; RU [11]: 17.9 RU; EC50 for IL-2 rescue, hLAG3 Jurkat T system [12]: 7.72 nM; Efficacy (IL-2 production, BMS = 100%) [12]: 46.5%; RU [13]: -7.5 RU; RU [14]: 15.2 RU |
| -11.7 RU | -6.2 RU | -9.1 RU | -11.7 RU | 5.57% | 13.4% | 12.1% | 18% | 27.3% | 36.5% | 43.4% | 50% | 52.9% | 52.8% | 4.09e-07 s⁻¹ | 1.17e+07 M⁻¹ s⁻¹ | -10.1 RU | -9.1 RU | -10.1 RU | -15.1 RU | sdAb No. 27 (VHH, Fc of the tested form not described; also called sdAb 27; not shown: Fc part implied by anti-human Fc capture and anti-human IgG Fc detection) VHH: QVQLVESGGGLVQPGGSLRLSCAASGFTLDYYAIGWFRQAPGKEREGVSCIRSSDGSTYYADSVKGRFTISSDNTKNTVYLQMNSLKPEDTAVYYCATDRYSDCRGPYENWGQGTQVTVSS | RU [11]: 34 RU; EC50 for IL-2 rescue, hLAG3 Jurkat T system [12]: 8.49 nM; Efficacy (IL-2 production, BMS = 100%) [12]: 50.2%; RU [13]: -9.6 RU; RU [14]: 48.2 RU |

— patent US20230303690A1 (published 2023)
